In article PMC7195491 one finds ddG data, which are given here for 1 variant.

To fix the notation:
B1: Dpr10 (Defective proboscis extension response 10), extracellular region [Drosophila melanogaster] / DIP-α (Dpr Interacting Protein alpha), extracellular region [Drosophila melanogaster] (parent)
chain 1: MLTLWTALFCCLTGLAVCYQRQSVSNNNHNNAEAKPTHAPPSHYPHGHKWNEPYFDLTMPRNITSLVGKSAYLGCRVKHLGNKTVAWIRHRDLHILTVGTYTYTTDQRFQTSYHRDIDEWTLQIKWAQQRDAGVYECQISTQPVRSYSVNLNIVVPTATILGGPDLYVDKGSTINLTCIIKFSPEPPTHIFWYHQDKVLSEETSGGRLKFKTIKSEETKSILLIYDADLLHSGKYSCYPSNTEIASIRVHVLQGERPEAMQTNAAPAAVALACWSCHFGQATQAVRVISTMVAALVLLEACSSLLLQSGGGGGCPGGGSPAGGMPTRVREIREKPLTNSLLDPKIPSTTSAERVNNGSRNAR
chain 2: MPVSAKRLLRNFQFTSCDRNGKMLIHLLLIVSLLEAIGAFQPEFVESISNVSVAVGRDATFTCHVRHLGGYRVGWLKADTKAIQAIHENVITHNPRVTVSHLDQNTWNLHIKAVSEEDRGGYMCQLNTDPMKSQIGFLDVVIPPDFISEDTSSDVIVPEGSSVRLTCRARGYPEPIVTWRREDGNEIVLKDNVGTKTLAPSFRGEVLKLSKISRNEMGSYLCIASNGVPPSVSKRISLSIHFHPVIQVPNQLVGAPLGTDVQIECHVEASPKSINYWIKDTGEMIVTSGKYHVQESSQSMYETKMSMIVRKFQKDDVGSYRCIAKNSLGEVDSSIRLYEIPGPNRNKNPLNGGGKGGGAGGSLDADANDILKQKQQVKVTYQPEDEELQYGSVEDFEAEGGEGGGLTPLSPHVYYTSGNKPATHKPGNSGGNQHLHQQHHHHHHHNNNNNNQQHSGGPGGGPTGGDAGSLGGEMGGITRKPPPYYGGNTEVRGPIDNNEMSSGSGDSRLCRGHHLPILLLPFARLILVRSWHCRHTFLMGLSQACLPGLLLSLL

In the assay the parent is B1. Briefly: SPR. The settings on record: with DIP-α (Dpr Interacting Protein alpha), 25 °C, 10 mM Tris-HCl, pH 7.2, 150 mM NaCl, 1 mM EDTA, 1 mg mL−1 BSA, 0.01% (v/v) Tween-20, analyte 81 to 0.012 μM, three-fold dilution series, parent: 0.
Consider chain 1 MLTLWTALFCCLTGLAVCYQRQSVSNNNHNNAEAKPTHAPPSHYPHGHKWNEPYFDLTMPRNITSLVGKSAYLGCRVKHLGNKTVAWIRHRDGHILTVGTYTYTTDQRFQTSYHRDIDEWTLQIKWAQQRDAGVYECQISTEPKRSYSVNLNIVVPTATILGGPDLYVDKGSTINLTCIIKFSPEPPTHIFWYHQDKVLSEETSGGRLKFKTIKSEETKSILLIYDADLLHSGKYSCYPSNTEIASIRVHVLQGERPEAMQTNAAPAAVALACWSCHFGQATQAVRVISTMVAALVLLEACSSLLLQSGGGGGCPGGGSPAGGMPTRVREIREKPLTNSLLDPKIPSTTSAERVNNGSRNAR [chain 1 L93G Q142E V144K], for which the ddG was greater than 3.5 kcal/mol.
